According to US20200055939A1:
Residue numbers refer to the chain shown, from its start. Several values for one entry are separate records, joined by “and”; a condition that tells them apart may be missing. Identical values can stand only once. Values belong to the binder of their own block, whether it stands above or below them.

Tests used:
H248A = experiment: SPR, Fab over captured MICA*008.mIgG2a Ala variant; KD relative to wild type
G275A = experiment: as above
H290A = experiment: as above
Y283A = experiment: as above
Chain of Y283A (chain, as listed by the source Y283A Y283A limits assumed): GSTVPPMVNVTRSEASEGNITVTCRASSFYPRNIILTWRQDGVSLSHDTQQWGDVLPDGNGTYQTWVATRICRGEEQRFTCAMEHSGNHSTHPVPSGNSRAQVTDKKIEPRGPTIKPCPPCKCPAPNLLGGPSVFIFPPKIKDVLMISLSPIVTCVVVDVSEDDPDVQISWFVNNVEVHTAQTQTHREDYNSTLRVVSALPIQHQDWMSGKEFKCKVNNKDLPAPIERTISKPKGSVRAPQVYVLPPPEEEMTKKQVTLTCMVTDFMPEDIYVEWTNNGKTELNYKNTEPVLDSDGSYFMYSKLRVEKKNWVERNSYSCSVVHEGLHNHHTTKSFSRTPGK

R240A = experiment: as above
Chain of R240A (chain, as listed by the source R240A R240A limits assumed): as the sequence (chain, as listed by the source Y283A Y283A limits assumed) above, with R39A, A82Y counted along it

I236A = experiment: as above
Chain of I236A (chain, as listed by the source I236A I236A limits assumed): as the sequence (chain, as listed by the source Y283A Y283A limits assumed) above, with I35A, A82Y counted along it

R274A = experiment: as above
Chain of R274A (chain, as listed by the source R274A R274A limits assumed): as the sequence (chain, as listed by the source Y283A Y283A limits assumed) above, with R73A, A82Y counted along it

T292A = experiment: as above
Chain of T292A (chain, as listed by the source T292A T292A limits assumed): as the sequence (chain, as listed by the source Y283A Y283A limits assumed) above, with A82Y, T91A counted along it

V244A = experiment: as above
Chain of V244A (chain, as listed by the source V244A V244A limits assumed): as the sequence (chain, as listed by the source Y283A Y283A limits assumed) above, with V43A, A82Y counted along it

R279A = experiment: as above
Chain of R279A (chain, as listed by the source R279A R279A limits assumed): as the sequence (chain, as listed by the source Y283A Y283A limits assumed) above, with R78A, A82Y counted along it

D249A = experiment: as above
Chain of D249A (chain, as listed by the source D249A D249A limits assumed): as the sequence (chain, as listed by the source Y283A Y283A limits assumed) above, with D48A, A82Y counted along it

Q241A = experiment: as above
Chain of Q241A (chain, as listed by the source Q241A Q241A limits assumed): as the sequence (chain, as listed by the source Y283A Y283A limits assumed) above, with Q40A, A82Y counted along it

S245A = experiment: as above
Chain of S245A (chain, as listed by the source S245A S245A limits assumed): as the sequence (chain, as listed by the source Y283A Y283A limits assumed) above, with S44A, A82Y counted along it

E285A = experiment: as above
Chain of E285A (chain, as listed by the source E285A E285A limits assumed): as the sequence (chain, as listed by the source Y283A Y283A limits assumed) above, with A82Y, E84A counted along it

the other Glyco variants = experiment: ELISA, coated variant

Chain of G275A (chain, as listed by the source G275A G275A limits assumed): as the sequence (chain, as listed by the source Y283A Y283A limits assumed) above, with G74A, A82Y counted along it
Chain of H290A (chain, as listed by the source H290A H290A limits assumed): as the sequence (chain, as listed by the source Y283A Y283A limits assumed) above, with A82Y, H89A counted along it
Chain of H248A (chain, as listed by the source H248A H248A limits assumed): as the sequence (chain, as listed by the source Y283A Y283A limits assumed) above, with H47A, A82Y counted along it

B1: 1D5 Fab (Fab, V domains shown, not shown: a dimerising Fc or GST)
VH: EIQLQQSGPELVKPGASVKVSCKASGYAFTSQNIYWVKQSHGKSLEWIGYIEPYNVVPMYNPKFKGKATLTVDKSSSSAYIHLNSLTSEDSAIYYCARSGSSNFDYWGQGTTLTVSS
VL: EIILTQSPTTMAASPGEKITITCSASSSISSHYLHWYQQKSGFSPKLLIYRTSNLASGVPARFSGSGSGTSYSLTIGTMEAEDVATYYCQQGSSLPLTFGAGTKVEIK
fold-decrease in affinity (H248A): 16
fold-decrease in affinity (G275A): 0.03
fold-decrease in affinity (H290A): 14400
fold-decrease in affinity (Y283A): 6260
fold-decrease in affinity (R240A): 15500
fold-decrease in affinity (I236A): 0.01
fold-decrease in affinity (R274A): 3
fold-decrease in affinity (T292A): 3040
fold-decrease in affinity (V244A): 10400
fold-decrease in affinity (R279A): 3950
fold-decrease in affinity (D249A): 3.5
fold-decrease in affinity (Q241A): 9830
fold-decrease in affinity (S245A): 13
fold-decrease in affinity (E285A): 1060

B3: 6F8.7 Fab (Fab, V domains shown)
VH: DVQLQGSGPGLVKPSQSLSLTCSVTGYSITNDYYWNWIRQFPGNKLEWMGFISFGGSNNYNPSLKNRISITRDTSKNQFFLKLSSVTTEDTATYYCARYDGRGAWFAYWAQGTLVTVSA
VL: DIQMTQSPASLSASVGETVTITCRASGNIHNYLAWYQQKQGKSPQLLVYDAITLADGVPSRFSGSGSGTQYSLKINSLQPEDFGNYYCQHFWSFPLTFGAGTKVEIK
fold-decrease in affinity (V244A): 5.5

More lines, now with the values ahead:

fold-decrease in affinity (G275A): 3.1
fold-decrease in affinity (Y283A): 3.2
fold-decrease in affinity (R240A): 1500
fold-decrease in affinity (V244A): 8.6
B2: 7D4.6 Fab (Fab, V domains shown)
VH: DVQLQESGPGLVKPSQSLSLTCTVTGYSITSDYAWNWIRQFPRNKLEWMGYINYSGTTNYNPSLKSRISITRDTSKNQFFLQLISVTTEDTATYYCSYYRYDGAWFPYWGQGTLVTVSA
VL: B3 VL with D50N, T53M, G64A, N85S

Elisa value (the other Glyco variants): 3.8 and 3.9
B4: 13A9 (antibody, V domains shown)
VH: QVQLQQSGAELVRPGTSVKVSCKASGYAFTNYLIEWVKQRPGQGLEWIGAINPGSGATNYNEKFKDKARLTADKSSNTAYLQFSSLTSDDSAVYFCARFLGNYFDNWGQGATLTVSS
VL: DIQMTQSPASLSASVGETVTITCRASGNIHSYLAWYQQKQGKSPQLLVYYAETLADGVPSRFSGRGSGTQYSLKINSLQPEDFGSYFCQQFWTTPYTFGGGTKVEIK
